Test results published in the supplement of paper PMC11246515.
± gives the standard deviation of the averaged measurements.

Test: total protein half-life in vivo (active degradation + dilution); higher = more stable protein
[1] = E. coli NCM3722 delta-clpP, growth: N-lim chemostat, doubling time 6 h
[2] = E. coli NCM3722 delta-hslV, growth: N-lim chemostat, doubling time 6 h
[3] = E. coli NCM3722 delta-lon, growth: N-lim chemostat, doubling time 6 h
[4] = E. coli NCM3722 delta-smpB, growth: N-lim chemostat, doubling time 6 h
[5] = wild type E. coli NCM3722, growth: C-lim chemostat, doubling time 6 h
[6] = wild type E. coli NCM3722, growth: C-lim chemostat, doubling time 12 h
[7] = wild type E. coli NCM3722, growth: N-lim chemostat, doubling time 6 h
[8] = wild type E. coli NCM3722, growth: N-lim chemostat, doubling time 12 h
[9] = wild type E. coli NCM3722, growth: P-lim chemostat, doubling time 6 h
[10] = wild type E. coli NCM3722, growth: P-lim chemostat, doubling time 12 h
[11] = E. coli NCM3722 delta-clpP delta-lon delta-hslV, growth: N-lim chemostat, doubling time 6 h
[12] = wild type E. coli NCM3722, growth: C-lim chemostat, doubling time 3 h

Row | Sequence | total protein half-life in vivo [1] [h] | total protein half-life in vivo [2] [h] | total protein half-life in vivo [3] [h] | total protein half-life in vivo [4] [h] | total protein half-life in vivo [5] [h] | total protein half-life in vivo [6] [h] | total protein half-life in vivo [7] [h] | total protein half-life in vivo [8] [h] | total protein half-life in vivo [9] [h] | total protein half-life in vivo [10] [h] | total protein half-life in vivo [11] [h] | total protein half-life in vivo [12] [h]
1 | MLNQLDNLTERVRGSNKLVDRWLHVRKHLLVAYYNLVGIKPGKESYMRLNEKALDDFCQSLVDYLSAGHFSIYERILHKLEGNGQLARAAKIWPQLEANTQQIMDYYDSSLETAIDHDNYLEFQQVLSDIGEALEARFVLEDKLILLVLDAARVKHPA [P0AFX4] | 6.38 | 2.42 ± 0.21 | 2.8 | 2.38 ± 0.34 | 3.06 ± 0.11 | 5.14 ± 0.081 | 2.51 ± 0.29 | 3.09 ± 0.19 | 3.51 | 5.62 ± 0.091 | – | –
2 | MAKTAAALHILVKEEKLALDLLEQIKNGADFGKLAKKHSICPSGKRGGDLGEFRQGQMVPAFDKVVFSCPVLEPTGPLHTQFGYHIIKVLYRN [P0A9L5] | 4.65 ± 1.5 | 4.743 ± 0.043 | 6.25 ± 0.67 | 6.01 ± 0.7 | 5.57 ± 0.14 | 9.11 ± 0.34 | 4.22 ± 0.34 | 7.37 ± 0.48 | 4.54 ± 1.2 | 10.6 ± 0.12 | 6.6 ± 0.64 | 3.05 ± 0.21
3 | MQKDALNNVHITDEQVLMTPEQLKAAFPLSLQQEAQIADSRKSISDIIAGRDPRLLVVCGPCSIHDPETALEYARRFKALAAEVSDSLYLVMRVYFEKPRTTVGWKGLINDPHMDGSFDVEAGLQIARKLLLELVNMGLPLATEALDPNSPQYLGDLFSWSAIGARTTESQTHREMASGLSMPVGFKNGTDGSLATAINAMRAAAQPHRFVGINQAGQVALLQTQGNPDGHVILRGGKAPNYSPADVAQCEKEMEQAGLRPSLMVDCSHGNSNKDYRRQPAVAESVVAQIKDGNRSIIGLMIESNIHEGNQSSEQPRSEMKYGVSVTDACISWEMTDALLREIHQDLNGQLTARVA | 1.05 ± 0.12 | 0.859 ± 0.25 | 3.06 ± 3 | 0.903 ± 0.017 | 2.79 ± 0.37 | 3.84 ± 0.57 | 0.94 | 1.81 | 1.57 | 3.5 ± 0.6 | 3.13 ± 0.21 | 2.24 ± 0.07
4 | MSNLAAMLRLPANLKSTQWQILAGPILILLILSMMVLPLPAFILDLLFTFNIALSIMVLLVAMFTQRTLEFAAFPTILLFTTLLRLALNVASTRIILMEGHTGAAAAGKVVEAFGHFLVGGNFAIGIVVFVILVIINFMVITKGAGRIAEVGARFVLDGMPGKQMAIDADLNAGLIGEDEAKKRRSEVTQEADFYGSMDGASKFVRGDAIAGILIMVINIVGGLLVGVLQHGMSMGHAAESYTLLTIGDGLVAQIPALVISTAAGVIVTRVSTDQDVGEQMVNQLFSNPSVMLLSAAVLGLLGLVPGMPNLVFLLFTAGLLGLAWWIRGREQKAPAEPKPVKMAENNTVVEATWNDVQLEDSLGMEVGYRLIPMVDFQQDGELLGRIRSIRKKFAQEMGFLPPVVHIRDNMDLQPARYRILMKGVEIGSGDAYPGRWLAINPGTAAGTLPGEATVDPAFGLNAIWIESALKEQAQIQGYTVVEASTVVATHLNHLISQHAAELFGRQEAQQLLDRVAQEMPKLTEDLVPGVVTLTTLHKVLQNLLDEKVPIRDMRTILETLAEHAPIQSDPHELTAVVRVALGRAITQQWFPGKDEVHVIGLDTPLERLLLQALQGGGGLEPGLADRLLAQTQEALSRQEMLGAPPVLLVNHALRPLLSRFLRRSLPQLVVLSNLELSDNRHIRMTATIGGK | – | – | – | – | 3.87 | 8.63 | – | – | – | 14.5 | – | 2.13 ± 0.33
5 | MKVKVLSLLVPALLVAGAANAAEVYNKDGNKLDLYGKVDGLHYFSDNKDVDGDQTYMRLGFKGETQVTDQLTGYGQWEYQIQGNSAENENNSWTRVAFAGLKFQDVGSFDYGRNYGVVYDVTSWTDVLPEFGGDTYGSDNFMQQRGNGFATYRNTDFFGLVDGLNFAVQYQGKNGNPSGEGFTSGVTNNGRDALRQNGDGVGGSITYDYEGFGIGGAISSSKRTDAQNTAAYIGNGDRAETYTGGLKYDANNIYLAAQYTQTYNATRVGSLGWANKAQNFEAVAQYQFDFGLRPSLAYLQSKGKNLGRGYDDEDILKYVDVGATYYFNKNMSTYVDYKINLLDDNQFTRDAGINTDNIVALGLVYQF | 6.32 ± 1.1 | 6.59 ± 0.66 | 7.2 ± 0.57 | 6.24 ± 0.51 | 6.64 ± 0.99 | 11.6 ± 2 | 5.94 ± 0.54 | 12.4 ± 1.4 | 6.7 ± 0.53 | 13.9 ± 2.6 | 7.5928 ± 0.0042 | 3.37 ± 0.1
6 | MASSNLIKQLQERGLVAQVTDEEALAERLAQGPIALYCGFDPTADSLHLGHLVPLLCLKRFQQAGHKPVALVGGATGLIGDPSFKAAERKLNTEETVQEWVDKIRKQVAPFLDFDCGENSAIAANNYDWFGNMNVLTFLRDIGKHFSVNQMINKEAVKQRLNREDQGISFTEFSYNLLQGYDFACLNKQYGVVLQIGGSDQWGNITSGIDLTRRLHQNQVFGLTVPLITKADGTKFGKTEGGAVWLDPKKTSPYKFYQFWINTADADVYRFLKFFTFMSIEEINALEEEDKNSGKAPRAQYVLAEQVTRLVHGEEGLQAAKRITECLFSGSLSALSEADFEQLAQDGVPMVEMEKGADLMQALVDSELQPSRGQARKTIASNAITINGEKQSDPEYFFKEEDRLFGRFTLLRRGKKNYCLICWK [P0AGJ9] | 5.55 ± 0.44 | 5.61 ± 0.41 | 5.87 ± 0.23 | 5.58 ± 0.69 | 6.32 ± 0.36 | – | 5.51 ± 0.065 | 10.5 ± 0.76 | 6.271 ± 0.031 | 12.2 ± 0.76 | 5.31 ± 0.33 | 3.11 ± 0.094
